The values below are quoted from earlier work in paper PMC4040926.

By Kd is commonly meant the constant that tells how readily two partners part at equilibrium.

This series deals with SNARE complex (Rattus norvegicus) (UniProt P32851). The experiment in a line: ITC.
UniProt P32851, sequence (P32851 whole entry, chain 1 of 3): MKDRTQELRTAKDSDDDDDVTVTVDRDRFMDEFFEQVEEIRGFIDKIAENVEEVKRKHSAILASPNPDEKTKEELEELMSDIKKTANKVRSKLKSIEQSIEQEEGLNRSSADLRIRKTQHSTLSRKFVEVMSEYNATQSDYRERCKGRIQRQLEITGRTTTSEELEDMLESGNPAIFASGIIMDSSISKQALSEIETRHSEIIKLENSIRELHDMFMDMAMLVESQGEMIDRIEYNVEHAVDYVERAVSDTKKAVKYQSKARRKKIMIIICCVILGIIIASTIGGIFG
UniProt P32851, sequence (B2RAU4 whole entry, chain 2 of 3, further chain): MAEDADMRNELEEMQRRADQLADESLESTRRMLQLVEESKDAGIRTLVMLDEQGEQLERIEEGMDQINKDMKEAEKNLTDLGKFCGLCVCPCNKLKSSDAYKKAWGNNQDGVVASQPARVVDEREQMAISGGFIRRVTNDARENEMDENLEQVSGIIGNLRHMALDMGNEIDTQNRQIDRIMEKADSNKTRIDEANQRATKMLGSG
UniProt P32851, sequence (P63044 2-116, chain 3 of 3, further chain): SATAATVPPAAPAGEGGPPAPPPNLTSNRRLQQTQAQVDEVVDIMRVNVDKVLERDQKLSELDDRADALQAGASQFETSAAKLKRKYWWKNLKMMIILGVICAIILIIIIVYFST

As for Complexin-I 26-83 (from UniProt P63041), the Kd is 25.3 nM.
